Laboratory results taken from US5747329.

Molecular target: heavy subunit of rat kidney gamma-glutamylcysteine synthetase (rat)

## light subunit of rat kidney gamma-glutamylcysteine synthetase (enzyme)
  Apparent Km for glutamate (mM), co-expressed recombinant holoenzyme: 1.8 mM
  Apparent Km for glutamate (mM), recombinant holoenzyme made by mixing the separately expressed subunits: 2.8 mM
